Measured values published in PMC11376383, “Transcription factor ZmEREB97 regulates nitrate uptake in maize (Zea mays) roots”.

B1: ZmNRT1.1A promoter probe (dsDNA)
DNA 1: ATATATAGCGGGGCGCCGCCCACCCGGCGGAGC
DNA 2: GCTCCGCCGGGTGGGCGGCGCCCCGCTATATAT
B2: ZmNRT1.1B promoter probe (dsDNA)
DNA 1: AACAGGAGCACCCGCCGCCATGCTGCTCGCT
DNA 2: AGCGAGCAGCATGGCGGCGGGTGCTCCTGTT
B3: ZmNRT1.2 promoter probe (dsDNA)
DNA 1: CCACCGCACTGTCGCCGCCGTGCAGGCTCCA
DNA 2: TGGAGCCTGCACGGCGGCGACAGTGCGGTGG
B4: ZmNRT2.1 promoter probe (dsDNA)
DNA 1: CCAGCAGCAGCAGCCGACTAAACGGCATAGA
DNA 2: TCTATGCCGTTTAGTCGGCTGCTGCTGCTGG
B5: ZmNRT2.5 promoter probe (dsDNA)
DNA 1: GCCGCGCCCGCTGCCGCCTCCCAGCTCGCT
DNA 2: AGCGAGCTGGGAGGCGGCAGCGGGCGCGGC
B6: ZmNRT3.1A promoter probe (dsDNA)
DNA 1: CACCAGCACCGGCGCCGCCATTCGCCCCCTG
DNA 2: CAGGGGGCGAATGGCGGCGCCGGTGCTGGTG
B7: Motif 1 probe (WT) (dsDNA)
DNA 1: CTCGGTCCACGCCGCCCGTCGGGGTTCG
DNA 2: CGAACCCCGACGGGCGGCGTGGACCGAG

biological target: T1, ZmEREB97 (Zea mays (B73_v3 gene model; cDNA …, UniProt C4J4G2 1-222); experiment: EMSA; partially competed by 50-fold cold probe; EMSA/Gel Shift Binding Buffer (Beyotime; composition, salt and pH not stated), 25 C, 20 min, about 80 ng protein, 2.5 ng probe; conditions: protein: recombinant; tags: 6xHis (pCold); label: 5'-biotin
T1 sequence (C4J4G2 entry or part of it): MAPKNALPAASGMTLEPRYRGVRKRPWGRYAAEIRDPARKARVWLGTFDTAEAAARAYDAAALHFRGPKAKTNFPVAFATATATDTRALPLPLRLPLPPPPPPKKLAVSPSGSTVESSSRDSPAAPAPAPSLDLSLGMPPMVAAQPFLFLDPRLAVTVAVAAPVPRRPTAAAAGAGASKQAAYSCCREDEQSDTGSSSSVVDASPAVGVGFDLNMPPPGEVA

Binding result, binds:
B1
B2
B3
B4
B5
B6

biological target: T1, ZmEREB97; experiment: EMSA; EMSA/Gel Shift Binding Buffer (Beyotime; composition, salt and pH not stated), 25 C, 20 min, about 80 ng protein, 2.5 ng probe; conditions: protein: recombinant; tags: 6xHis (pCold); label: 5'-biotin

Binding result, binds:
B7
